“Also recorded” adds a separate entry of the source. Bridge positions count the residues as written; N and C are the ends. Square brackets hold non-standard residues; d marks the D form. 2Nal = N[C@@H](Cc1ccc2ccccc2c1)C(=O)O; R8 = C=CCCCCCC[C@@](C)(N)C(=O)O; S5 = C=CCCC[C@](C)(N)C(=O)O

This experiment deals with T1, APC/C (Homo sapiens, UniProt Q9NYG5).
T1 construct: made in house; host or cells: SF9 insect cells (baculovirus)
Briefly: In vitro APC/C ubiquitination assay driven by the E2 enzyme UBE2C, fluorophore-labelled securin substrate. Type of experiment: biochemical. To be noted: 100 μM, UBE2C, reaction time 45 min. The method, then: Proteins were separated by SDS-PAGE electrophoresis using precast Bolt 4-12% Bis-Tris Plus protein gels (Thermo Fisher Scientific) and Criterion XT Bis-Tris Midi Protein Gels (Bio-Rad). In different experiments, various conditions were used: in vitro APC/C ubiquitination assays—165 V, 40 min, SDS-MES running buffer (50 mM MES, 50 mM Tris base, 0.1% SDS, 1 mM EDTA, pH 7.3; Thermo Fisher Scientific); in vitro APC/C ubiquitination assays determining KM—165V, 1 h, SDS-MOPS running buffer (50 mM MOPS, 50 mM Tris base, 0.1% SDS, 1 mM EDTA, pH 7.7; Thermo Fisher Scientific); pull-down binding assay—165 V, 35 min, SDS-MES running buffer.
APC/C-dependent ubiquitination reactions were performed at 30° C. in 30 mM HEPES pH 7.4, 175 mM NaCl, 8 mM MgCl2, 0.05% Tween-20, 1 mM DTT and 5% glycerol and contained 20 nM recombinant APC/C (note, for testing the first generation of inhibitors, APC/C and Cdc20 immunoprecipitated from mitotic HeLa K cells was used), 340 nM Cdc20, 46 nM GST-UBA1, 340 nM UBE2C (alternatively 400 nM UBE2D1, 280 nM UBE2S), 21 μM His6-ubiquitin or if it is indicated 21 μM methylated-ubiquitin (BostonBiochem), 2.6 mM ATP, 10 mM phosphocreatine and 11 μM creatine kinase. As substrates, 35 nM fluorophore-labeled ubiquitin-cyclin B and 50 nM fluorophore-labeled securin were standardly used (fluorophore IRDye 800CW (LI-COR) was used for labelling). In case of KM and kcat determination, 50, 100, 250, 500, 750, 1000, 1250, 2500 and 5000 nM fluorophore-labelled securin was used. The reaction was done in the volume of 15 μl, it was quenched after the indicated time with LDS sample buffer (Thermo Fisher Scientific) supplemented with 100 mM DTT and subjected to SDS-PAGE. Detection of fluorescently labelled substrates was done by quantitative near-infrared scanning system Odyssey.

Turning to “cyclo(1,14)-[T F L W K W E W T K R K p P] (cyclo(TFLWKWEWTKRK[dP]P); SMILES CC(C)C[C@@H]1NC(=O)[C@H](Cc2ccccc2)NC(=O)[C@H]([C@@H](C)O)NC(=O)[C@@H]2CCCN2C(=O)[C@H]2CCCN2C(=O)[C@H](CCCCN)NC(=O)[C@H](CCCNC(=N)N)NC(=O)[C@H](CCCCN)NC(=O)[C@H]([C@@H](C)O)NC(=O)[C@H](Cc2c[nH]c3ccccc23)NC(=O)[C@H](CCC(=O)O)NC(=O)[C@H](Cc2c[nH]c3ccccc23)NC(=O)[C@H](CCCCN)NC(=O)[C@H](Cc2c[nH]c3ccccc23)NC1=O) [G2-8]”, the “inhibition of APC/C activity in vitro (ubiquitinated securin)” value is reported as “inhibit APC/C in vitro the most effectively compared to other molecules of item (f)”. Still for that read-out and setting: the same measure for “cyclo(1,14)-[L 2-NaI L W K l E W E K R K p P] (cyclo(L[2Nal]LWK[dL]EWEKRK[dP]P); SMILES CC(C)C[C@@H]1NC(=O)[C@H](Cc2ccc3ccccc3c2)NC(=O)[C@H](CC(C)C)NC(=O)[C@@H]2CCCN2C(=O)[C@H]2CCCN2C(=O)[C@H](CCCCN)NC(=O)[C@H](CCCNC(=N)N)NC(=O)[C@H](CCCCN)NC(=O)[C@H](CCC(=O)O)NC(=O)[C@H](Cc2c[nH]c3ccccc23)NC(=O)[C@H](CCC(=O)O)NC(=O)[C@@H](CC(C)C)NC(=O)[C@H](CCCCN)NC(=O)[C@H](Cc2c[nH]c3ccccc23)NC1=O) [G2-4]”: “the most potent”. For “Ac-cyclo(4,11)-EWWZKLEIQRXRRA-NH2 (Ac-EWW[R8]KLEIQR[S5]RRA-NH2; staple 4-11; SMILES CC[C@H](C)[C@@H]1NC(=O)[C@H](CCC(=O)O)NC(=O)[C@H](CC(C)C)NC(=O)[C@H](CCCCN)NC(=O)[C@](C)(NC(=O)[C@H](Cc2c[nH]c3ccccc23)NC(=O)[C@H](Cc2c[nH]c3ccccc23)NC(=O)[C@H](CCC(=O)O)NC(C)=O)CCCCCCC=CCCC[C@@](C)(C(=O)N[C@@H](CCCNC(=N)N)C(=O)N[C@@H](CCCNC(=N)N)C(=O)N[C@@H](C)C(N)=O)NC(=O)[C@H](CCCNC(=N)N)NC(=O)[C@H](CCC(N)=O)NC1=O) [G3-4]”, the “inhibition of APC/C activity in vitro compared with TAME” value (3 independent assays) was “inhibit APC/C in vitro more efficiently than TAME”. As for “Ac-cyclo(3,13)-THCDDPETWRWNCQRV-NH2 (Ac-THCDDPETWRWNCQRV-NH2; disulfide 3-13; SMILES CC(=O)N[C@H](C(=O)N[C@@H](Cc1c[nH]cn1)C(=O)N[C@H]1CSSC[C@@H](C(=O)N[C@@H](CCC(N)=O)C(=O)N[C@@H](CCCNC(=N)N)C(=O)N[C@H](C(N)=O)C(C)C)NC(=O)[C@H](CC(N)=O)NC(=O)[C@H](Cc2c[nH]c3ccccc23)NC(=O)[C@H](CCCNC(=N)N)NC(=O)[C@H](Cc2c[nH]c3ccccc23)NC(=O)[C@H]([C@@H](C)O)NC(=O)[C@H](CCC(=O)O)NC(=O)[C@@H]2CCCN2C(=O)[C@H](CC(=O)O)NC(=O)[C@H](CC(=O)O)NC1=O)[C@@H](C)O) [G1-7]”, the “inhibition of APC/C activity in vitro (ubiquitinated securin)” value is listed as “the most potent”. Still for that read-out and setting: with “Ac-cyclo(2,11)-RCHWGPRTFWCR—NH2 (Ac-RCHWGPRTFWCR-NH2; disulfide 2-11; SMILES CC(=O)N[C@@H](CCCNC(=N)N)C(=O)N[C@H]1CSSC[C@@H](C(=O)N[C@@H](CCCNC(=N)N)C(N)=O)NC(=O)[C@H](Cc2c[nH]c3ccccc23)NC(=O)[C@H](Cc2ccccc2)NC(=O)[C@H]([C@@H](C)O)NC(=O)[C@H](CCCNC(=N)N)NC(=O)[C@@H]2CCCN2C(=O)CNC(=O)[C@H](Cc2c[nH]c3ccccc23)NC(=O)[C@H](Cc2c[nH]cn2)NC1=O) [G1-3]” the entry was “the most potent molecule from items (b)-(e); also recorded: the most potent molecule from item (b)”.

For the origin of these results see patent US20230391828A1, “REGULATORS OF CELL DIVISION” (TECHNISCHE UNIVERSITÄT DRESDEN, priority 2020, published 2023).
